In US20230265151A1, “GIP/GLP1 CO-AGONIST COMPOUNDS” (priority 2020, published 2023):
*1 amine or outer side, *2 acyl side, *3 side chain or, on linkers, in order; H or OH if unused. Where no end group is shown, it is not given here. Side-chain parts run from the residue outwards. [ ]: non-standard residue; d: D form. The star is where a group is joined. Undecanoyl(11-OPh(4-COOH)) = O=C(O)c1ccc(OCCCCCCCCCCC(=O)*)cc1; Decanoyl(10-(4-HOOC-PhO)) = O=C(O)c1ccc(OCCCCCCCCCC(=O)*)cc1; αMePhe(2-F) = C[C@](N)(Cc1ccccc1F)C(=O)O; γGlu = O=C(O)[C@H](CCC(=O)[*:2])N[*:1]; C14 diacid = O=C(O)CCCCCCCCCCCCC(=O)*; αMeY = C[C@](N)(Cc1ccc(O)cc1)C(=O)O; αMeL = CC(C)C[C@](C)(N)C(=O)O; αMeS = C[C@](N)(CO)C(=O)O; Orn = NCCC[C@H](N)C(=O)O; AEEA = NCCOCCOCC(=O)O; Aib = CC(C)(N)C(=O)O

T1: human GIP receptor (human, UniProt P48546 22-466)
T1 sequence (looked up): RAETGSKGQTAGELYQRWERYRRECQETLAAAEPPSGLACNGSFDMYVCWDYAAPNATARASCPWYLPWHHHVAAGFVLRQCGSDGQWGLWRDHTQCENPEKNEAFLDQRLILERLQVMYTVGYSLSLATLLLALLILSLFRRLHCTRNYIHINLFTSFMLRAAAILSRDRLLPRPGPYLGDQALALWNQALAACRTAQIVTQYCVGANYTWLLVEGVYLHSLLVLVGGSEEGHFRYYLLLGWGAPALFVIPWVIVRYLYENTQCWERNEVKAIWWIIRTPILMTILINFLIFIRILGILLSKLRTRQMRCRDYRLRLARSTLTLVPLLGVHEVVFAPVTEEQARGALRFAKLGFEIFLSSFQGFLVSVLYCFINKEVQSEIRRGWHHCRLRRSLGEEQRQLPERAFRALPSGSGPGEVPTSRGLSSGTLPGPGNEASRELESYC

T2: human GIP receptor (human, UniProt P48546 22-466)
T2 sequence (looked up): T1 sequence (looked up)

B1: Example 305 (peptide)
peptide: Y[Aib]EGT[αMePhe(2-F)]TSDV[αMeS]I[αMeL]LD[Orn]IAQ[Aib]EFIK([AEEA-AEEA-γGlu-C14 diacid])[αMeY]LIK([AEEA-AEEA-γGlu-C14 diacid])GGPSSGAPPPS-NH2
modifications: N-terminus assumed
SMILES: CC[C@H](C)[C@H](NC(=O)[C@H](CCCN)NC(=O)[C@H](CC(=O)O)NC(=O)[C@H](CC(C)C)NC(=O)[C@](C)(CC(C)C)NC(=O)[C@@H](NC(=O)[C@](C)(CO)NC(=O)[C@@H](NC(=O)[C@H](CC(=O)O)NC(=O)[C@H](CO)NC(=O)[C@@H](NC(=O)[C@](C)(Cc1ccccc1F)NC(=O)[C@@H](NC(=O)CNC(=O)[C@H](CCC(=O)O)NC(=O)C(C)(C)NC(=O)[C@@H](N)Cc1ccc(O)cc1)[C@@H](C)O)[C@@H](C)O)C(C)C)[C@@H](C)CC)C(=O)N[C@@H](C)C(=O)N[C@@H](CCC(N)=O)C(=O)NC(C)(C)C(=O)N[C@@H](CCC(=O)O)C(=O)N[C@@H](Cc1ccccc1)C(=O)N[C@H](C(=O)N[C@@H](CCCCNC(=O)COCCOCCNC(=O)COCCOCCNC(=O)CC[C@H](NC(=O)CCCCCCCCCCCCC(=O)O)C(=O)O)C(=O)N[C@@](C)(Cc1ccc(O)cc1)C(=O)N[C@@H](CC(C)C)C(=O)N[C@H](C(=O)N[C@@H](CCCCNC(=O)COCCOCCNC(=O)COCCOCCNC(=O)CC[C@H](NC(=O)CCCCCCCCCCCCC(=O)O)C(=O)O)C(=O)NCC(=O)NCC(=O)N1CCC[C@H]1C(=O)N[C@@H](CO)C(=O)N[C@@H](CO)C(=O)NCC(=O)N[C@@H](C)C(=O)N1CCC[C@H]1C(=O)N1CCC[C@H]1C(=O)N1CCC[C@H]1C(=O)N[C@@H](CO)C(N)=O)[C@@H](C)CC)[C@@H](C)CC
B2: Example 400 (peptide)
peptide: Y[Aib]EGT[αMePhe(2-F)]TSDV[Aib]I[αMeL]LD[Orn]IAQ[Aib]EFIK([AEEA-γGlu-C14 diacid])[αMeY]LIK([AEEA-γGlu-C14 diacid])GGPSSGAPPPS-NH2
modifications: N-terminus assumed
SMILES: CC[C@H](C)[C@H](NC(=O)[C@H](CCCN)NC(=O)[C@H](CC(=O)O)NC(=O)[C@H](CC(C)C)NC(=O)[C@](C)(CC(C)C)NC(=O)[C@@H](NC(=O)C(C)(C)NC(=O)[C@@H](NC(=O)[C@H](CC(=O)O)NC(=O)[C@H](CO)NC(=O)[C@@H](NC(=O)[C@](C)(Cc1ccccc1F)NC(=O)[C@@H](NC(=O)CNC(=O)[C@H](CCC(=O)O)NC(=O)C(C)(C)NC(=O)[C@@H](N)Cc1ccc(O)cc1)[C@@H](C)O)[C@@H](C)O)C(C)C)[C@@H](C)CC)C(=O)N[C@@H](C)C(=O)N[C@@H](CCC(N)=O)C(=O)NC(C)(C)C(=O)N[C@@H](CCC(=O)O)C(=O)N[C@@H](Cc1ccccc1)C(=O)N[C@H](C(=O)N[C@@H](CCCCNC(=O)COCCOCCNC(=O)CC[C@H](NC(=O)CCCCCCCCCCCCC(=O)O)C(=O)O)C(=O)N[C@@](C)(Cc1ccc(O)cc1)C(=O)N[C@@H](CC(C)C)C(=O)N[C@H](C(=O)N[C@@H](CCCCNC(=O)COCCOCCNC(=O)CC[C@H](NC(=O)CCCCCCCCCCCCC(=O)O)C(=O)O)C(=O)NCC(=O)NCC(=O)N1CCC[C@H]1C(=O)N[C@@H](CO)C(=O)N[C@@H](CO)C(=O)NCC(=O)N[C@@H](C)C(=O)N1CCC[C@H]1C(=O)N1CCC[C@H]1C(=O)N1CCC[C@H]1C(=O)N[C@@H](CO)C(N)=O)[C@@H](C)CC)[C@@H](C)CC
B3: Example 344 (peptide)
peptide: Y[Aib]EGT[αMePhe(2-F)]TSDV[Aib]I[αMeL]LD[Orn]IAQ[Aib]EFIK([AEEA-AEEA-AEEA-γGlu-C14 diacid])[αMeY]LIK([AEEA-AEEA-AEEA-γGlu-C14 diacid])GGPSSGAPPPS-NH2
modifications: N-terminus assumed
SMILES: CC[C@H](C)[C@H](NC(=O)[C@H](CCCN)NC(=O)[C@H](CC(=O)O)NC(=O)[C@H](CC(C)C)NC(=O)[C@](C)(CC(C)C)NC(=O)[C@@H](NC(=O)C(C)(C)NC(=O)[C@@H](NC(=O)[C@H](CC(=O)O)NC(=O)[C@H](CO)NC(=O)[C@@H](NC(=O)[C@](C)(Cc1ccccc1F)NC(=O)[C@@H](NC(=O)CNC(=O)[C@H](CCC(=O)O)NC(=O)C(C)(C)NC(=O)[C@@H](N)Cc1ccc(O)cc1)[C@@H](C)O)[C@@H](C)O)C(C)C)[C@@H](C)CC)C(=O)N[C@@H](C)C(=O)N[C@@H](CCC(N)=O)C(=O)NC(C)(C)C(=O)N[C@@H](CCC(=O)O)C(=O)N[C@@H](Cc1ccccc1)C(=O)N[C@H](C(=O)N[C@@H](CCCCNC(=O)COCCOCCNC(=O)COCCOCCNC(=O)COCCOCCNC(=O)CC[C@H](NC(=O)CCCCCCCCCCCCC(=O)O)C(=O)O)C(=O)N[C@@](C)(Cc1ccc(O)cc1)C(=O)N[C@@H](CC(C)C)C(=O)N[C@H](C(=O)N[C@@H](CCCCNC(=O)COCCOCCNC(=O)COCCOCCNC(=O)COCCOCCNC(=O)CC[C@H](NC(=O)CCCCCCCCCCCCC(=O)O)C(=O)O)C(=O)NCC(=O)NCC(=O)N1CCC[C@H]1C(=O)N[C@@H](CO)C(=O)N[C@@H](CO)C(=O)NCC(=O)N[C@@H](C)C(=O)N1CCC[C@H]1C(=O)N1CCC[C@H]1C(=O)N1CCC[C@H]1C(=O)N[C@@H](CO)C(N)=O)[C@@H](C)CC)[C@@H](C)CC

Assays:
Experiment in all cases: cell-based or functional assay
[1] = biological target: human GLP-1 receptor (human, UniProt P43220 24-463)
[2] = biological target: T1, human GIP receptor
[3] = biological target: human GLP-1 receptor (human, UniProt P43220 24-463); remark: listed apart in the source
[4] = biological target: T2, human GIP receptor; remark: listed apart in the source

| Binder | cAMP EC50 (1.0% HSA) [1] [nM] | cAMP Emax (1.0% HSA) [1] [%] | cAMP EC50 (1.0% HSA) [2] [nM] | cAMP EC50 (1.0% HSA) [3] [nM] | cAMP EC50 (1.0% HSA) [4] [nM] | cAMP Emax (1.0% HSA) [2] [%] |
| --- | --- | --- | --- | --- | --- | --- |
| B1 | 80.3 | 125 | 4.34 | – | – | – |
| B2 | – | – | – | 107 | 16.7 | – |
| B3 | 48.3 | – | 6.78 | – | – | 87.3 |
| Y[Aib]EGT[αMePhe(2-F)]TSDV[Aib]I[αMeL]LD[Orn]IAQ[Aib]EFIK([AEEA-AEEA-AEEA-γGlu-Decanoyl(10-(4-HOOC-PhO))])[αMeY]LIK([AEEA-AEEA-AEEA-γGlu-Decanoyl(10-(4-HOOC-PhO))])GGPSSGAPPPS-NH2 [Example 347] | 51.7 | – | 7.27 | – | – | 84.6 |
| Y[Aib]EGT[αMePhe(2-F)]TSDV[αMeS]I[αMeL]LD[Orn]IAQ[Aib]EFIK([AEEA-AEEA-γGlu-Decanoyl(10-(4-HOOC-PhO))])[αMeY]LIK([AEEA-AEEA-γGlu-Decanoyl(10-(4-HOOC-PhO))])GGPSSGAPPPS-NH2 [Example 309] | 64.6 | – | 6.08 | – | – | – |
| Y[Aib]EGT[αMePhe(2-F)]TSDV[Aib]I[αMeL]LD[Orn]IAQ[Aib]EFIK([AEEA-γGlu-Decanoyl(10-(4-HOOC-PhO))])[αMeY]LIK([AEEA-γGlu-Decanoyl(10-(4-HOOC-PhO))])GGPSSGAPPPS-NH2 [Example 381] | – | – | – | 153 | 28 | – |
| Y[Aib]EGT[αMePhe(2-F)]TSDV[Aib]I[αMeL]LD[Orn]IAQ[Aib]EFIK([AEEA-AEEA-γGlu-Undecanoyl(11-OPh(4-COOH))])[αMeY]LIK([AEEA-AEEA-γGlu-Undecanoyl(11-OPh(4-COOH))])GGPSSGAPPPS-NH2 [Example 313] | 98.8 | – | 21.9 | – | – | – |
